The results in this text go back to the supplement of paper PMC10567573.

Sequences and labels used below:
B1: GNB5 (parent)
chain: YYPSGDAFASGSDDATCRLYDLRA
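Also: lentivirally expressed fusions sorted by FACS into six bins by GFP to DsRed ratio, PSI derived from sequencing read proportions per bin multiplied by bin number.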

Variants of B1 are the subject of this data set. Put plainly: protein stability index of a GFP-peptide fusion (GPS, HEK-293T) (PSI 1-6); higher = more stable. The settings on record: c terminus: a fixed tail appended.
In the case of YYPNGDAFASGSDDATCRLYDLRA [S4N], the protein stability index stood at 3.03.

As for YYPQGDAFASGSDDATCRLYDLRA [S4Q], the protein stability index was 3.48.

Take YYPHGDAFASGSDDATCRLYDLRA [S4H]: the protein stability index came to 2.87.

On to YYPSGDAFGSGSDDATCRLYDLRA [A9G], for which the protein stability index was 2.41.

Consider YYPSGDAFLSGSDDATCRLYDLRA [A9L], for which the protein stability index came to 1.99.

With YYPSGDAFTSGSDDATCRLYDLRA [A9T], the protein stability index is 2.36.

As to YYPSGDAFNSGSDDATCRLYDLRA [A9N], the protein stability index stood at 2.65.

Take YYPSGDAFPSGSDDATCRLYDLRA [A9P]: the protein stability index turned out to be 3.06.

On to YYPSGDAFCSGSDDATCRLYDLRA [A9C], for which the protein stability index was 2.36.

Take YYPSGDAFYSGSDDATCRLYDLRA [A9Y]: the protein stability index was found to be 2.04.

Take YYPSGDAFRSGSDDATCRLYDLRA [A9R]: the protein stability index is 2.17.

For the variant YYPSGDAFWSGSDDATCRLYDLRA [A9W], the protein stability index came out at 1.72.

On to YYPSGDAFISGSDDATCRLYDLRA [A9I], for which the protein stability index stood at 2.12.

Turning to YYPSGDAFQSGSDDATCRLYDLRA [A9Q], the protein stability index was determined as 2.36.

On to YYPSGDAFMSGSDDATCRLYDLRA [A9M], for which the protein stability index amounted to 2.45.

Take YYPSGDAFDSGSDDATCRLYDLRA [A9D]: the protein stability index turned out to be 3.6.

Regarding YYPSGDAFFSGSDDATCRLYDLRA [A9F], the protein stability index is 1.9.

As for YYPSGDAFVSGSDDATCRLYDLRA [A9V], the protein stability index worked out at 2.32.

Regarding YYPSGDAFKSGSDDATCRLYDLRA [A9K], the protein stability index was determined as 2.22.

For the variant YYPSGDAFESGSDDATCRLYDLRA [A9E], the protein stability index came out at 3.17.

With YYPSGDAFSSGSDDATCRLYDLRA [A9S], the protein stability index is 2.56.

With YYPSGDAFHSGSDDATCRLYDLRA [A9H], the protein stability index stood at 2.15.

Regarding YYWSGDAFASGSDDATCRLYDLRA [P3W], the protein stability index was determined as 2.32.

Regarding YYLSGDAFASGSDDATCRLYDLRA [P3L], the protein stability index turned out to be 2.31.

With YYVSGDAFASGSDDATCRLYDLRA [P3V], the protein stability index was determined as 2.31.

Turning to YYRSGDAFASGSDDATCRLYDLRA [P3R], the protein stability index stood at 2.88.

In the case of YYGSGDAFASGSDDATCRLYDLRA [P3G], the protein stability index stood at 3.33.

For the variant YYISGDAFASGSDDATCRLYDLRA [P3I], the protein stability index is 2.

As for YYFSGDAFASGSDDATCRLYDLRA [P3F], the protein stability index is 2.5.

YYSSGDAFASGSDDATCRLYDLRA [P3S]: the protein stability index was found to be 3.27.

In the case of YYTSGDAFASGSDDATCRLYDLRA [P3T], the protein stability index was determined as 3.52.

Take YYKSGDAFASGSDDATCRLYDLRA [P3K]: the protein stability index came to 2.64.

With YYQSGDAFASGSDDATCRLYDLRA [P3Q], the protein stability index was determined as 3.21.

As to YYYSGDAFASGSDDATCRLYDLRA [P3Y], the protein stability index was found to be 2.

In the case of YYMSGDAFASGSDDATCRLYDLRA [P3M], the protein stability index is 2.99.

With YYNSGDAFASGSDDATCRLYDLRA [P3N], the protein stability index is 3.36.

For the variant YYHSGDAFASGSDDATCRLYDLRA [P3H], the protein stability index stood at 3.04.

Take YYPSGMAFASGSDDATCRLYDLRA [D6M]: the protein stability index came to 1.92.

With YYPSGQAFASGSDDATCRLYDLRA [D6Q], the protein stability index was determined as 1.83.

Regarding YYPSGHAFASGSDDATCRLYDLRA [D6H], the protein stability index is 2.26.

For the variant YYPSGYAFASGSDDATCRLYDLRA [D6Y], the protein stability index was determined as 1.97.

Take YYPSGRAFASGSDDATCRLYDLRA [D6R]: the protein stability index worked out at 1.91.

As for YYPSGGAFASGSDDATCRLYDLRA [D6G], the protein stability index came out at 2.72.

Consider YYPSGCAFASGSDDATCRLYDLRA [D6C], for which the protein stability index worked out at 2.03.

YYPSGIAFASGSDDATCRLYDLRA [D6I]: the protein stability index turned out to be 1.89.

With YYPSGKAFASGSDDATCRLYDLRA [D6K], the protein stability index worked out at 1.64.

Turning to YYPSGWAFASGSDDATCRLYDLRA [D6W], the protein stability index turned out to be 1.52.

Regarding YYPSGEAFASGSDDATCRLYDLRA [D6E], the protein stability index was found to be 2.43.

For YYPSGAAFASGSDDATCRLYDLRA [D6A], the protein stability index stood at 2.31.

For YYPSGVAFASGSDDATCRLYDLRA [D6V], the protein stability index amounted to 2.35.

On to YYPSGLAFASGSDDATCRLYDLRA [D6L], for which the protein stability index worked out at 2.06.

Consider YYPSGFAFASGSDDATCRLYDLRA [D6F], for which the protein stability index was determined as 2.14.

As for YYPSGPAFASGSDDATCRLYDLRA [D6P], the protein stability index came out at 2.81.

Regarding YYPSGTAFASGSDDATCRLYDLRA [D6T], the protein stability index amounted to 2.13.

As to YYPSGSAFASGSDDATCRLYDLRA [D6S], the protein stability index stood at 2.52.

Consider YYPSGNAFASGSDDATCRLYDLRA [D6N], for which the protein stability index is 2.11.

In the case of YYPSGDAFADGSDDATCRLYDLRA [S10D], the protein stability index was 3.28.

For YYPSGDAFARGSDDATCRLYDLRA [S10R], the protein stability index was determined as 2.1.

Consider YYPSGDAFAWGSDDATCRLYDLRA [S10W], for which the protein stability index came to 2.23.

As to YYPSGDAFALGSDDATCRLYDLRA [S10L], the protein stability index was determined as 2.05.

With YYPSGDAFAEGSDDATCRLYDLRA [S10E], the protein stability index worked out at 3.

Consider YYPSGDAFANGSDDATCRLYDLRA [S10N], for which the protein stability index was 2.64.

Take YYPSGDAFACGSDDATCRLYDLRA [S10C]: the protein stability index stood at 2.01.

On to YYPSGDAFAHGSDDATCRLYDLRA [S10H], for which the protein stability index stood at 2.56.

Consider YYPSGDAFAQGSDDATCRLYDLRA [S10Q], for which the protein stability index was 2.54.

Regarding YYPSGDAFAIGSDDATCRLYDLRA [S10I], the protein stability index stood at 1.79.

For YYPSGDAFAYGSDDATCRLYDLRA [S10Y], the protein stability index came to 2.4.

As for YYPSGDAFAGGSDDATCRLYDLRA [S10G], the protein stability index turned out to be 2.36.

Consider YYPSGDAFATGSDDATCRLYDLRA [S10T], for which the protein stability index is 2.68.

As to YYPSGDAFAKGSDDATCRLYDLRA [S10K], the protein stability index amounted to 2.25.

For YYPSGDAFAFGSDDATCRLYDLRA [S10F], the protein stability index came to 2.03.

For the variant YYPSGDAFAPGSDDATCRLYDLRA [S10P], the protein stability index is 2.46.

In the case of YYPSGDAFAAGSDDATCRLYDLRA [S10A], the protein stability index came to 2.25.

Turning to YYPSGDAFAMGSDDATCRLYDLRA [S10M], the protein stability index came to 2.16.

YYPSGDAFAVGSDDATCRLYDLRA [S10V]: the protein stability index was 2.18.

Take YYPSGDDFASGSDDATCRLYDLRA [A7D]: the protein stability index was determined as 3.83.

With YYPSGDPFASGSDDATCRLYDLRA [A7P], the protein stability index stood at 2.5.

In the case of YYPSGDHFASGSDDATCRLYDLRA [A7H], the protein stability index turned out to be 2.58.

As to YYPSGDWFASGSDDATCRLYDLRA [A7W], the protein stability index worked out at 1.66.

With YYPSGDVFASGSDDATCRLYDLRA [A7V], the protein stability index was found to be 2.23.

For YYPSGDGFASGSDDATCRLYDLRA [A7G], the protein stability index worked out at 3.47.

As for YYPSGDEFASGSDDATCRLYDLRA [A7E], the protein stability index amounted to 3.1.

YYPSGDRFASGSDDATCRLYDLRA [A7R]: the protein stability index was 3.1.

On to YYPSGDIFASGSDDATCRLYDLRA [A7I], for which the protein stability index is 2.31.

As for YYPSGDKFASGSDDATCRLYDLRA [A7K], the protein stability index is 2.52.

For YYPSGDCFASGSDDATCRLYDLRA [A7C], the protein stability index came to 2.31.

YYPSGDSFASGSDDATCRLYDLRA [A7S]: the protein stability index turned out to be 2.39.

Consider YYPSGDMFASGSDDATCRLYDLRA [A7M], for which the protein stability index is 2.47.

In the case of YYPSGDQFASGSDDATCRLYDLRA [A7Q], the protein stability index stood at 2.65.

Consider YYPSGDTFASGSDDATCRLYDLRA [A7T], for which the protein stability index amounted to 2.71.

For the variant YYPSGDLFASGSDDATCRLYDLRA [A7L], the protein stability index stood at 2.2.

Take YYPSGDFFASGSDDATCRLYDLRA [A7F]: the protein stability index amounted to 1.77.

With YYPSGDYFASGSDDATCRLYDLRA [A7Y], the protein stability index is 2.06.

As to YYPSGDNFASGSDDATCRLYDLRA [A7N], the protein stability index is 2.73.
